The values that follow come from patent publication US20030180892A1.

This assay deals with IL-17-like receptor (on the BIAcore surface). The assay is described as follows: BIAcore (SPR), negative control conditioned media.

pC4 control conditioned media showed a response (RU) of 20 RU.
